Measured values as given in article PMC1253830.

What was measured:
Assay in all cases: two-hybrid
[1] = target: pGBKT7-CcLim15CT 104-345 (Coprinus cinereus)
[2] = target: pGBKT7-CcLim15NT 1-104 (Coprinus cinereus)
[3] = target: pGBKT7-CcLim15 (Coprinus cinereus Lim15/Dmc1, residues 1-345, fused to the GAL4 DNA-binding domain) (Coprinus cinereus)

| β-galactosidase activity [1] | β-galactosidase activity [2] | β-galactosidase activity [3] | Substance |
| --- | --- | --- | --- |
| 3.49 | < 1 | 16.5 | pGADT7-CcTopIICT 1066-1569 (domain or fragment) |
|  |  | < 1 | pGADT7-CcTopIIMD 751-1065 (domain or fragment) |
|  |  | < 1 | pGADT7-CcTopIINT 1-750 (domain or fragment) |
